According to paper PMC3753260, “High Yield Production of a Soluble Human Interleukin-3 Variant from E. coli with Wild-Type Bioactivity and Improved Radiolabeling Properties” (PLoS ONE, 2013):

Assays:
[1] = biological target: T1, human IL-3Rα subunit (human, UniProt P26951 19-378); test: radioligand binding; ^125I-labelled hIL-3(13-125; W13Y) on COS cells transiently expressing IL-3 receptors; Scatchard analysis with EBDA-LIGAND software; settings: one partner purified
T1 construct: human interleukin-3 receptor α subunit, transiently expressed on COS cells; also called hIL-3Rα; IL-3-specific α-subunit; source: COS cells, transfected by electroporation (pSG5: IL-3Rα), on cells
T1 sequence (P26951 19-378): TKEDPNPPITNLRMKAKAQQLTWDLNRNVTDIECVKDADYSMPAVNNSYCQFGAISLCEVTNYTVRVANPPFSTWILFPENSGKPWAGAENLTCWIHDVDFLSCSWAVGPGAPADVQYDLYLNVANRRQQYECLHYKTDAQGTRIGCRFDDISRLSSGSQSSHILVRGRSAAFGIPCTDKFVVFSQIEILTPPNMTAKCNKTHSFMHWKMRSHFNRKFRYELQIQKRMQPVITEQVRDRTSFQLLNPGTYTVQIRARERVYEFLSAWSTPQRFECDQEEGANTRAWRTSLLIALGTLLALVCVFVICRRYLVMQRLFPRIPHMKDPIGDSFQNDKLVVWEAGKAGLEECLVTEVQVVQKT

[2] = biological target: T2, hIL-3Rα and hβc subunits co-expressed (hIL-3 receptor) (human, UniProt P26951 19-378; P32927 17-897); test: as above; settings: one partner purified
T2 construct: human interleukin-3 receptor α subunit, transiently co-expressed with βc on COS cells; human common β-subunit (βc) shared with the IL-5 and GM-CSF receptors, transiently co-expressed with IL-3Rα on COS cells; The two subunits were co-expressed on the same cells; also called IL-3Rα and βc; hIL-3 receptors; source: COS cells, transfected by electroporation (pSG5: IL-3Rα and pSG5: βc), on cells
T2 sequence (P26951 19-378, chain 1 of 2): as the sequence (P26951 19-378) above
T2 sequence (P32927 17-897, chain 2 of 2): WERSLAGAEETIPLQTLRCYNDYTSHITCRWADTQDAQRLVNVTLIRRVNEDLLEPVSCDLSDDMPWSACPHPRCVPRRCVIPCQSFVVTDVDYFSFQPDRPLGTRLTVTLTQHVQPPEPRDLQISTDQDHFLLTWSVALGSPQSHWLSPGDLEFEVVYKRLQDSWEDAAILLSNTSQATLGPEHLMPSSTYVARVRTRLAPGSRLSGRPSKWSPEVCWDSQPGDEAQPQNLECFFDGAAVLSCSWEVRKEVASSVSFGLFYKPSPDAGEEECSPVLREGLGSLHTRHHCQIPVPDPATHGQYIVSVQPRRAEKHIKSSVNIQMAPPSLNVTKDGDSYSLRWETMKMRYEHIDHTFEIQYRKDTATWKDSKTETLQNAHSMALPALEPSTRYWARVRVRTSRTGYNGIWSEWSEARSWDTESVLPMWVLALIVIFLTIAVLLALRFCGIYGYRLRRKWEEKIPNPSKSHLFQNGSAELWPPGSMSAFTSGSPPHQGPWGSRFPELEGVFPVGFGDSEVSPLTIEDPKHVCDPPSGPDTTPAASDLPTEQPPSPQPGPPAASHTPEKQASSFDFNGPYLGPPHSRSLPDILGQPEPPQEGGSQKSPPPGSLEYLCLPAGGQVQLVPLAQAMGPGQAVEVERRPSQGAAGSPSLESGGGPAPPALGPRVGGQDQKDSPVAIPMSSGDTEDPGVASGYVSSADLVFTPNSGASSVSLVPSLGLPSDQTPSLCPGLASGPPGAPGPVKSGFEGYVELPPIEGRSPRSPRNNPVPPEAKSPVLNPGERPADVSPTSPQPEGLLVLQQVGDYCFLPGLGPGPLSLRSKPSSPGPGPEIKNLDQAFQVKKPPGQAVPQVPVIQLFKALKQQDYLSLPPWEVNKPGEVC

B1: ^125I-hIL-3(13-125; W13Y) (ligand, human)
chain: GAMGSYVNCSNMIDEIITHLKQPPLPLLDFNNLNGEDQDILMENNLRRPNLEAFNRAVKSLQNASAIESILKNLLPCLPLATAAPTRHPIHIKDGDWNEFRRKLTFYLKTLENAQAQQ
modifications: ^125I radio-iodinated (tyrosine labelling, Pierce Pre-Coated Iodination tubes / Iodogen)
notes: non-native N-terminal overhang left after TEV protease cleavage of the NusA-His6 tag (cloning artifact); human interleukin-3, four-helix bundle core, residues 13-125 with W13Y; numbers count on: the mature protein; Vector pETNusH HTb; also called hIL-3(W13Y); hIL-3 analog; source: E. coli BL21 CodonPlus (DE3)-RIPL, purified (Ni-NTA, TEV cleavage, SEC, in some cases RP-HPLC), then radio-iodinated; …
Kd [1]: 143 nM | Kd [2]: 0.456 nM
